Data reported in article PMC4540644 (Journal of molecular biology, 2015).
Each block holds one binder with its values, some of them ahead of it.

What was measured:
Assay in all cases: co-sedimentation
[1] = molecular target: T1, Rabbit skeletal muscle α-actin filaments (F-actin) (rabbit, UniProt P68135 1-377)
[2] = molecular target: T1, Rabbit skeletal muscle α-actin …; remark: listed apart in the source
[3] = molecular target: Yeast (Saccharomyces cerevisiae) actin, wild type, filaments (Saccharomyces cerevisiae, UniProt P60010 1-375)

stoichiometry N [1]: 1
Kd [2]: 560 ± 90 nM
B1: Human metavinculin tail (MVT, residues 879-1134) (domain or fragment)
chain: EEKDEEFPEQKAGEVINQPMMMAARQLHDEARKWSSKPGIPAAEVGIGVVAEADAADAAGFPVPPDMEDDYEPELLLMPSNQPVNQPILAAAQSLHREATKWSSKGNDIIAAAKRMALLMAEMSRLVRGGSGTKRALIQCAKDIAKASDEVTRLAKEVAKQCTDKRIRTNLLQVCERIPTISTQLKILSTVKATMLGRTNISDEESEQATEMLVHNAQNLMQSVKETVREAEAASIKIRTDAGFTLRWVRKTPWYQ

stoichiometry N [1]: 1
binding result [3]: binds
B2: Human vinculin tail (VT, residues 879-1066) (domain or fragment, UniProt P18206-2 879-1066, looked up)
chain: EEKDEEFPEQKAGEVINQPMMMAARQLHDEARKWSSKGNDIIAAAKRMALLMAEMSRLVRGGSGTKRALIQCAKDIAKASDEVTRLAKEVAKQCTDKRIRTNLLQVCERIPTISTQLKILSTVKATMLGRTNISDEESEQATEMLVHNAQNLMQSVKETVREAEAASIKIRTDAGFTLRWVRKTPWYQ
